IntAct's records for PubMed 11248247

B1: Twist-related protein 1 (Homo sapiens), Q15672 (parent)
chain: MMQDVSSSPVSPADDSLSNSEEEPDRQQPPSGKRGGRKRRSSRRSAGGGAGPGGAAGGGVGGGDEPGSPAQGKRGKKSAGCGGGGGAGGGGGSSSGGGSPQSYEELQTQRVMANVRERQRTQSLNEAFAALRKIIPTLPSDKLSKIQTLKLAARYIDFLYQVLQSDELDSKMASCSYVAHERLSYAFSVWRMEGAWSMSASH

Variants of: B1
Conditions: with TCF3, P15923-1
Sequence of TCF3, P15923-1 (P15923 whole entry): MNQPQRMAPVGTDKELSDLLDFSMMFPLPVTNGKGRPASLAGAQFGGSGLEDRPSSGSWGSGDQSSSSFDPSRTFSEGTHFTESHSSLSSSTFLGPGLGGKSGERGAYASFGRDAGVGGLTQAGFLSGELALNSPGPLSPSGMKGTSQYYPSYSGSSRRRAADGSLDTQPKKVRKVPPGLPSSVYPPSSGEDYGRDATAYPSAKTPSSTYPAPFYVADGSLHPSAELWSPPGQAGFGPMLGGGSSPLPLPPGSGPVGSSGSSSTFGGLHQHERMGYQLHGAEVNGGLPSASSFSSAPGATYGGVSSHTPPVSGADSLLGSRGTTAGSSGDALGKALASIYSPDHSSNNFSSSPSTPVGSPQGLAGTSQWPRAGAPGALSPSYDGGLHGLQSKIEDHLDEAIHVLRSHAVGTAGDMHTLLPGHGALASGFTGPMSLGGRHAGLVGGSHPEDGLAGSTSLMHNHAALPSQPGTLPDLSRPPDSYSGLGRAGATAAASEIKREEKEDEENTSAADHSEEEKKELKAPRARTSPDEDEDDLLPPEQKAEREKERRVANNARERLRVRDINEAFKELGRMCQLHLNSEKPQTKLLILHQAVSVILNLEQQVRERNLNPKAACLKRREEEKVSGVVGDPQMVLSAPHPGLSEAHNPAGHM

| Variant | effect of a mutation on the interaction |
| --- | --- |
| MMQDVSSSPVSPADDSLSNSEEEPDRQQPPSGKRGGRKRRSSRRSAGGGAGPGGAAGGGVGGGDEPGSPAQGKRGKKSAGCGGGGGAGGGGGSSSGGGSPQSYEELQTQRVMANVRECQRTQSLNEAFAALRKIIPTLPSDKLSKIQTLKLAARYIDFLYQVLQSDELDSKMASCSYVAHERLSYAFSVWRMEGAWSMSASH [R118C] | with no effect |
| MMQDVSSSPVSPADDSLSNSEEEPDRQQPPSGKRGGRKRRSSRRSAGGGAGPGGAAGGGVGGGDEPGSPAQGKRGKKSAGCGGGGGAGGGGGSSSGGGSPQSYEELQTQRVMANVRERQRTQSLNEAFAALRKIIPTLPSDKLSEIQTLKLAARYIDFLYQVLQSDELDSKMASCSYVAHERLSYAFSVWRMEGAWSMSASH [K145E] | decreasing interaction strength |
| MMQDVSSSPVSPADDSLSNSEEEPDRQQPPSGKRGGRKRRSSRRSAGGGAGPGGAAGGGVGGGDEPGSPAQGKRGKKSAGCGGGGGAGGGGGSSSGGGSPQSYEELQTQRVMANVRERQRTQSLNEAFAALRKIIPTLPSDKLRKIQTLKLAARYIDFLYQVLQSDELDSKMASCSYVAHERLSYAFSVWRMEGAWSMSASH [S144R] | with no effect |

Variants of: B1
Conditions: with TCF3, P15923-1
Remark: another data set of the same source

| Variant | effect of a mutation on the interaction |
| --- | --- |
| MMQDVSSSPVSPADDSLSNSEEEPDRQQPPSGKRGGRKRRSSRRSAGGGAGPGGAAGGGVGGGDEPGSPAQGKRGKKSAGCGGGGGAGGGGGSSSGGGSPQSYEELQTQRVMANVRERQRTQSLNEAFAALRKIIPTLPSDKLSEIQTLKLAARYIDFLYQVLQSDELDSKMASCSYVAHERLSYAFSVWRMEGAWSMSASH [K145E] | with no effect |
